Results from patent US20190388532A1 (ENTEROME S A, published 2019).

B1: IL13RA2-B (antigenic peptide FLPFGFILV, SEQ ID No 31) (peptide)
peptide: FLPFGFILV
notes: also called candidate peptide; IL13RA2-B pAg

Target: T1, HLA-A*0201 molecule expressed by T2 cells (human)
T1 construct: MHC class I molecule on T2 cells
Test: T2 cell HLA-A*0201 surface expression assay, flow cytometry; relative affinity = peptide concentration inducing 20% HLA-A*0201 expression / that of reference peptide HIV pol 589-597
Procedure: T2 cells (2.10⁵ cells per well) were incubated with decreasing conceontrations of peptides from 100 μM to 0.1 μM in a AIMV medium supplemented with 100 ng/μl of human β2 m at 37° C. for 16 hours. Cells were then washed two times and marked with the anti-HLA-A2 antibody coupled to PE (clone BB7.2, BD Pharmagen).
The experimental protocol, materials and methods correspond to those outlined in Example 3, with the only difference that the above mentioned antigenic peptides were used.

Row | In vitro binding affinity | Binder
1 | 2.22 | ILPFGFILA [peptide 1I9A]
2 | 0.49 | B1
3 | 3.06 | ALPFGFILV (also called IL13RA2-ST) [peptide 1A9V (Eguchi et al. 2006)]
4 | 2.62 | FLPFGFILM [peptide 1F9M]
